Source: the RNAGym collection of RNA variant scans (doi:10.7554/elife.80360)

B1: HDV Ribozyme (parent)
chain: GGCCGGCAUGGUCCCAGCCUCCUCGCUGGCGCCGGCUGGGCAACAUUCCGAGGGGACCGUCCCCUCGGUAAUGGCGAAUGGGACCCA

Variants of: B1
Assay: self-cleavage, relative activity (ratio to wild type); higher = more cleavage; co-transcriptional

Row | Variant | self-cleavage
1 | C48A A51U | 1.1
2 | C48A C57G | 1.18
3 | A45G G52U | 0.731
4 | A45U C62G | 0.798
5 | U47C C84A | 0.554
6 | U46A G74U | 0.305
7 | A45G C64A | 0.658
8 | A45U C85U | 0.877
9 | U46G G73A | 0.831
10 | U46C A56C | 0.609
11 | A45U A78C | 0.13
12 | A45C C57G | 0.851
13 | U47G U65A | 0.942
14 | C48U C49A | 1.05
15 | C48U C49G | 0.982
16 | A45G A71G | 0.831
17 | A45G A71C | 1.01
18 | A45G A83C | 0.482
19 | U47C C61U | 0.872
20 | A45C U79A | 0.208
21 | A45C U65G | 0.745
22 | C48A C62U | 1.05
23 | U47G C84G | 0.475
24 | U47G C84A | 0.965

Row | Variant | self-cleavage
25 | U47A A77U | 0.516
26 | U47A A77C | 0
27 | U47A G55C | 1.15
28 | U47C C49A | 0.95
29 | U46G C62A | 0.575
30 | U46C A70G | 1.03
31 | A45G C57A | 0.979
32 | U46G C84A | 0.554
33 | A45G A77U | 0.482
34 | U46G U60C | 0.665
35 | U46A C49A | 0.665
36 | A45C G53C | 0.755
37 | U47A C64U | 1.08
38 | A45C C66G | 0.587
39 | A45G G50C | 0.989
40 | A45G G50U | 1.16
41 | C48U A78G | 0.522
42 | U46G U47G | 0.262
43 | U46G U72A | 0.266
44 | A45G U72A | 0.604
45 | A45G U72C | 0.87
46 | A45U C61A | 0.928
47 | U46G C48U | 0.751
48 | C48A G67C | 0.856

Row | Variant | self-cleavage
49 | A45G U65A | 0.767
50 | A45G U65G | 0.782
51 | U46C C86G | 0.852
52 | U46A G54A | 0.763
53 | A45C C63G | 0.427
54 | A45C C63A | 0.748
55 | A45C C63U | 0.727
56 | U47A U65A | 1.07
57 | U47A U65G | 0.931
58 | U46G G50C | 0.429
59 | U46C A78C | 0.0426
60 | U46C A78G | 0.554
61 | A45U U46G | 0.787
62 | A45U U46C | 0.665
63 | U47A A71C | 0.85
64 | U47A A71U | 0.657
65 | C48A G74U | 0.38
66 | A45C C62G | 0.391
67 | A45C C62A | 0.584
68 | U47A U72C | 0.688
69 | C48G A71U | 0.554
70 | C48G A71G | 0.962
71 | U47A C62U | 1.03
72 | U47G A70C | 1.22

Row | Variant | self-cleavage
73 | U47G A70U | 1.4
74 | A45G C48A | 1.27
75 | U47A C57G | 0.898
76 | U46C G76C | 0.415
77 | A45G A78U | 0.225
78 | A45G U46A | 0.806
79 | A45G U46C | 0.511
80 | U47A G81C | 0.161
81 | U47A G81U | 0.219
82 | U47A G53C | 1.19
83 | U47A G53U | 0.755
84 | U46C G59C | 0.965
85 | A45G C63A | 0.872
86 | U47G U60A | 1.33
87 | A45U C48G | 0.739
88 | C48A U60A | 0.918
89 | C48A U60C | 0.91
90 | C48A U60G | 0.886
91 | U47C G52U | 0.698
92 | A45C U47G | 0.95
93 | C48G C57A | 0.798
94 | C48G C57U | 1.04
95 | A45C G59U | 0.507
96 | U46G G81U | 0.249

Row | Variant | self-cleavage
97 | U47G C75A | 0.107
98 | U47G C75U | 0.305
99 | U47C G50U | 0.733
100 | U47C G50C | 0.831
101 | C48A A56U | 1.03
102 | U47G A51U | 1.2
103 | U47G A51C | 1.13
104 | U47G A51G | 0.906
105 | U47A G67C | 1.12
106 | A45C G82A | 0.208
107 | U46G A71U | 0.731
108 | C48A G55A | 0.972
109 | U47A G54C | 1.01
110 | A45C G81C | 0.0489
111 | C48G U69C | 0.987
112 | C48G U69G | 0.712
113 | A45C G54A | 0.597
114 | U46A C62G | 0.289
115 | U46G C85G | 0.665
116 | A45C G55U | 0.525
117 | A45C G55A | 0.554
118 | U46G C49A | 0.391
119 | U47C G55U | 0.831
120 | C48A C49A | 1.16

Row | Variant | self-cleavage
121 | C48A C49U | 1.23
122 | U47G G54C | 0.928
123 | U46A C66A | 0.727
124 | U46G A77C | 0.0875
125 | A45G U47C | 0.787
126 | U46G C86G | 1.01
127 | C48G A87G | 0.975
128 | C48G A87C | 1.08
129 | U46G A78U | 0.0573
130 | A45U G81U | 0.277
131 | A45U G81C | 0.287
132 | C48A C84U | 0.819
133 | C48A C84A | 1.08
134 | C48G A70U | 0.506
135 | U46C C48A | 0.89
136 | U46C C48G | 1.18
137 | C48G A78U | 0.142
138 | U47G C63G | 0.415
139 | U47C A77C | 0.317
140 | A45G A56G | 0.997
141 | U46A C57G | 0.617
142 | U47A C66U | 1.17
143 | A45U G82C | 0.0898
144 | U46G G76U | 0.73

Row | Variant | self-cleavage
145 | U47G G52C | 0.895
146 | U47G G52A | 0.978
147 | U47G C58G | 0.831
148 | U47A C75U | 0.203
149 | U47A C75A | 0.138
150 | A45U C84G | 0.332
151 | A45U C84U | 0.623
152 | C48G C49A | 0.808
153 | U46C G68U | 0.719
154 | U47G U72G | 0.623
155 | U46G G67U | 0.302
156 | C48G U72A | 0.718
157 | A45U G73A | 0.616
158 | A45U G73U | 0.302
159 | U47C U72A | 0.65
160 | C48A G52U | 0.974
161 | U46G G53U | 0.262
162 | A45U U69C | 0.959
163 | A45U U69G | 0.855
164 | U47A A78U | 0.295
165 | U47A A78G | 0.831
166 | U46C U47G | 0.703
167 | U46G C61A | 0.617
